Substrate in data set [1]: CC(=O)Oc1ccc([N+](=O)[O-])cc1
The data set is described as follows: p-nitrophenol release, initial rates, nonlinear Michaelis-Menten fit. Format: biochemical, Pseudonocardia alni. To be noted: 100 mM Tris-HCl pH 7.4, 100 mM NaCl, 25 °C.

Substrate in data set [2]: CCCC(=O)Oc1ccc([N+](=O)[O-])cc1
The description is as above. It is filed as biochemical, Pseudonocardia alni. Particulars: 100 mM Tris-HCl pH 7.4, 100 mM NaCl, 25 °C.

B1: PanLipΔN (Pseudonocardia alni) (protein)
chain: TLPDETFGPVDRPGPALSVPPDQLDAAVRCSANATDADRDVALFVPGTTLTPEVNFGFNWFAALDDLGRPYCSVTLPNNAMTDTQIAAEYVVHAIRHVHGISGRKVDVLGHSQGGTEPRFALRFWPDLRGMVDDYVAFGTTNHGSIAINAALCTPATGCAEALWQQTLNSHYTQAMNSYQETFAGISYTQIYTRTDEFVQPNLDDSGTTSLHGGGGEISNVALQDVCLTEAASEHIAVGTYSPVAYALATDALDHDGPADPARVDRGVCTQVFMPGVDPLTFPTDYAATLGLIANQLALAPRVGSEPELRPYTLADDRQG
notes: Signal peptide (30 residues) and proline-rich putative propeptide (27 residues) removed; ~first 57 residues missing (methods say first 27 of full-length); starts at TLPDE by primer; ends KQNLLE; pET-28a(+) NdeI/XhoI, His tag; codon-optimized; E. coli SHuffle T7 Express; Ni-NTA purified; Precursor length printed as both 324 and 377 residues
Consider B1, for which, in data set [1], the Km (usually the substrate concentration at which the rate is half of its maximum) is on record as 66.8 ± 18.5 µM; the kcat (in general, the number of substrate molecules converted per active site and unit of time at saturation) stood at 16.2 ± 1.8 s⁻¹. Besides, in data set [2], the Km turned out to be 2830 ± 1560 µM and the kcat stood at 9.7 ± 1.8 s⁻¹.

The values above are taken from publication PMC12734981, “A CALB-like Cold-Active Lipolytic Enzyme from Pseudonocardia antarctica: Expression, Biochemical Characterization, and AlphaFold-Guided Dynamics” (Marine Drugs, 2025).
